Data on 21 substances can be found in patent US20040101905A1, “Product” (priority 2000, published 2004).

A value given as a limit tells only on which side of the number the result lay.

In one experiment the target is T1, FcγRI receptor (Homo sapiens, UniProt P12314).
T1 construct: To increase FcγRI expression the U937-cells were treated with 100 U/ml IFN-γ for 40 hours; endogenous in cells; host or cells: U937 cells stimulated with IFN-γ
Briefly: Affinity selection of phage displayed peptides on IFN-γ stimulated U937 cells (FcγRI binding). How it is done: (§1) Affinity selection: For affinity selection, […] stimulated U937cells were washed in 20 ml pan-wash buffer (PBS pH7.4, 1% BSA, 1 mMCaCl2, 10 mMMgCl2) and then resuspended in 1 ml pan-wash buffer. Portions (1×10^10 E. coli K91K transducing units (TU)) of each library were added to the cells. Cells and phages were incubated with agitation for 1.5 hours at 4° C. Unbound phages were removed by washing the cells 6 times with 2 ml pan-wash buffer. Bound phages were eluted in 200 μl 0.1M HCl-glycine pH 2.2 for 10 minutes on ice. The eluates were neutralised with 17 μl 1.5M Tris pH 8.8. Phages were amplified (essentially as described in Smith and Scott Methods Enzymol. 1993;217:228-57). A second round of affinity selection was performed using an input of 10^9 phages.
Peptide sequences of affinity selected phage clones: PCR products covering the peptide coding insert were created using the primers fUSE5 for (5′ […] 3′) and fUSE5 (5′[…] 3′). The PCR products were sequenced (GATC/GmBh Germany) using the primer (5′[…] 3′) and the results shown in Table 1.

In experiment [1] the target is T2, SC (secretory component, extracellular portion of the poly Ig receptor) (Homo sapiens, UniProt P01833).
T2 construct: “secretory component”—the extracellular portion of the poly Ig receptor; from tissue; host or cells: human colostrum
Briefly: ELISA of phage binding to immobilised SC. The conditions noted are these: for SC binding of single phage clones (ELISA): immobilised colostrum SC. How it is done: Affinity selection: Free SC purified from human colostrum by Jackaline-Sepharose column (Pharmacia Biotech, Uppsala, Sweden) (Brandtzaeg P. Scand. J. Immunol. 1974, 3:579-88) was used. SC was immobilised in Nunc MaxiSorp (Costar) tubes at approximately 30 μg/ml in a volume of 500 μl in each tube at 4° C. ON. The tubes were blocked with 1% BSA or 1% milk powder in PBS for 1 h at RT. Approximately 10^10 TU from each library were pre incubated with PBS and 1% BSA or 1% milk powder (1:1) for 1 h at 4° C. before they were added to the tubes and incubated at RT for 1.5 h. The tubes were washed 6 times with PBS/0.05% Tween 20. Bound phage were eluted by incubation with 500 μl 0.1M HCl-glycine pH 2.2 for 10 min and neutralised with 75 μl 0.1M Tris pH 9.1. Phage were amplified essentially as described by Smith and Scott (Methods Enzymol., 1993, 217:228-257) and two additional rounds of affinity selection were performed.
ELISA assay. The purified colostrum SC was coated at 30 μg/ml in Nunc MaxiSorb wells in PBS at 4° C. ON. The wells were blocked with 200 μl PBS with 1% BSA or 1% milk powder for 1 h at RT. Phage supernatants from amplified eluates or single colonies were diluted 1:1 in blocking buffer, added to the wells and allowed to react with immobilsed SC for 1.5 h at RT. The wells were washed 6 times with PBS/0.05% Tween and bound phage were detected by adding a horse radish peroxidase (HRP)/Anti-M13 IgG conjugate (Pharmacia) 1:4000 in PBS with 1% BSA or 1% milk powder. After incubation for 1 h at RT, washing with PBS/[…] and addition of ABTS substrate solution (ABTS tablets from Boehringer Mannheim in citrate buffer, pH 4.0) the ABTS-HRP reactions were read in a microtiter plate reader set at […] (Dynatech MR 700).
A general note: In an ELISA, binding on a coated surface is turned into a signal by an enzyme label.

Another experiment deals with K562 cells. Briefly: Phage binding to K562 cells. It is filed as cell-based, human. Particulars: input 5 × 10^7 TU; for Output (number of bound phages): 3×10^6 cells. How it is done: (§2) Cells: U937 cells (ATCC CRL-1593) and K562 cells (ATCC CCL-243) were maintained in RPMI 1640 medium (Gibco laboratories) supplemented with 10% heat-inactivated FCS (Biological Industries, Beth Haemark), 2 mM L-glutamine, 100 U/ml penicillin (Gibco). Cells-were incubated at 5% CO2 and 37° C. at density ranging from 10^5 to 10^6 cells/ml.
as §1
(§3) Cell binding of individual phages: Phage expressing the peptide CLRSGLGC were analysed for binding unstimulated U937 cells, IFN-γ stimulated U937 cells, as well as K562 cells. Both U937 and […]. Whereas INF-γ stimulated U937 cells express an increased number of FcγRI, K562-cells preferentially express FcγRII. 5×10^7 TU of individual phage clones were added to 3×10^6 cells in pan-wash buffer, incubated and eluted as described above.

Another experiment has as its system unstimulated U937 cells. Briefly: Phage binding to unstimulated U937 cells. Type of experiment: cell-based, human. The conditions noted are these: input 5 × 10^7 TU; for Output (number of bound phages): 3×10^6 cells. How it is done:
as §2, §1, §3

Experiment [2] deals with IFN-γ stimulated U937 cells. Briefly: Phage binding to IFN-γ stimulated U937 cells. It is filed as cell-based, human. Particulars: for % output / Output (number of bound phages): U937-INF-γ, input 5 × 10^7 TU; for Output (number of bound phages): 3×10^6 cells, acid eluate. How it is done:
as §2
To increase FcγRI expression the U937-cells were treated with 100 U/ml IFN-γ for 40 hours.
as §1, §3

For another experiment, the target named is T3, SC (Homo sapiens, UniProt P01833).
T3 construct: “secretory component”—the extracellular portion of the poly Ig receptor; from tissue; host or cells: human colostrum
Briefly: Inhibition assay of SC binding phages. Particulars: phages CWTSGARWRLC and CVVWMGFQQVC pre incubated with competitor. How it is done:
Inhibition assay of SC binding phages: Nunc MaxiSorb 96 wells plates were coated with 30 μg/ml of purified colostrum SC at 4° C. ON. The plates were blocked in 1% milk powder for 1 h at RT before adding phage. Phage were pre incubated with […] polymeric IgA (pIgA), pIgM or Streptococcus pneumoniae secretory IgA binding protein (SpsA) in PBS/1% milk powder. SpsA is an streptococcal produced SC binding protein (Hammerschmidt et al. Mol Microbiol 1997 sep 25 (6): 1113-24). After incubation for 1.5 h at RT the plates were washed 6 times before HRP/Anti-M13 conjugate (Pharmacia) 1:4000 in PBS with 1% milk powder was added. 6 times of washing with PBS/0.05% Tween were followed by the ABTS substrate solution. The ABTS-HRP reaction was read in a microtiter plate reader set at 405 nm. All samples were run in duplicates.

Experiment [3] can be described thus: Phage binding to control wells (protein A with lysate from untransfected NSO cells; protein A blocked with BSA). How it is done:
(§4) Protein A was immobilised in wells at 10 μg/ml in a volume of 200 μl at 4° C. overnight (ON). The wells were blocked with 1% BSA in PBS for 1 h at room temperature (RT). Lysate from FcFcR-transfected and untransfected cells were added to the wells and incubated at RT for 2 h. The wells were washed and new lysate was added zero, one or two times following 2 h incubation at RT. The wells were washed 7 times with PBS/0.5% Tween 20. 200 μl biotinylated human IgG3 in PBS (1 μg/ml) was added to the wells. The wells were washed as above and binding of biotinylated IgG3 was detected with streptavidin and […] (FIG. 2).
(§5) Wells were coated as described above with lysate from FcFcR transfected NSO cells added three times. Phages displaying the peptide CLRSGLGC were added to the wells and incubated at RT for 1.5 h. The wells were washed 8 times with PBS/0.5% Tween 20. Bound phages were eluted by incubation with 200 μl 0.1M HCl-glycine pH 2.2 for 10 min. and neutralised with 17 μl 0.1M Tris pH 8.8. The number of bound phages were determined as E. coli K91K TU's (Table 4).

The target of experiment [4] is T4, FcFcR (recombinant dimeric soluble human FcγRI) (Homo sapiens, UniProt P12314).
T4 construct: the extracelluar part of the human FcγRI genetically fused to human IgG4; made in house; host or cells: mouse myeloma cell line NSO (lysate of transfected cells, not purified)
Briefly: Binding of phage displayed peptides to recombinant dimeric FcγRI (FcFcR) immobilised via protein A. How it is done:
as §4, §5

T2 sequence (P01833 19-603 limits assumed): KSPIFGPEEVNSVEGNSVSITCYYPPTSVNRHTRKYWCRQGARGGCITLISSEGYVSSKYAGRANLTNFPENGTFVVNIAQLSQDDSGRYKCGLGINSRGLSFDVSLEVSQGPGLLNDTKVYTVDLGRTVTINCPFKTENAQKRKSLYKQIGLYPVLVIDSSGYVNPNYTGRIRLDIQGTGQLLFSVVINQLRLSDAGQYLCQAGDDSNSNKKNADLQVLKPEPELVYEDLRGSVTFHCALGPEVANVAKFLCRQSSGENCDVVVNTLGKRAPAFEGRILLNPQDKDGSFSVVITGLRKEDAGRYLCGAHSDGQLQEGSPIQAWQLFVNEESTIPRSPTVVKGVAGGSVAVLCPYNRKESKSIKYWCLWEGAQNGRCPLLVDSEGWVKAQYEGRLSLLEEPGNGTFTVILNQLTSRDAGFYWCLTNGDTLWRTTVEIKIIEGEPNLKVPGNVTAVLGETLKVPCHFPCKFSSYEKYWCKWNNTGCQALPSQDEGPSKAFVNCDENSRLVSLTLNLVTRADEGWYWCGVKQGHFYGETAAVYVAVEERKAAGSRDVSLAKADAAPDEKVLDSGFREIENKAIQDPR
T4 sequence (P12314 16-292 limits assumed): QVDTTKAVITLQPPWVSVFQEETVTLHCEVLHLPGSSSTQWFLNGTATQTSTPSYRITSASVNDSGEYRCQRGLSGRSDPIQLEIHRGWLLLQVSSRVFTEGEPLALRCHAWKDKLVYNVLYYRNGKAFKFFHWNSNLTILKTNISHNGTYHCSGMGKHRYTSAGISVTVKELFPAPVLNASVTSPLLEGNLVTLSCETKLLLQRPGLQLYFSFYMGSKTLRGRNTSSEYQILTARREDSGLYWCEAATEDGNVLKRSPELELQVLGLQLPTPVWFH
T1 sequence (P12314 16-374): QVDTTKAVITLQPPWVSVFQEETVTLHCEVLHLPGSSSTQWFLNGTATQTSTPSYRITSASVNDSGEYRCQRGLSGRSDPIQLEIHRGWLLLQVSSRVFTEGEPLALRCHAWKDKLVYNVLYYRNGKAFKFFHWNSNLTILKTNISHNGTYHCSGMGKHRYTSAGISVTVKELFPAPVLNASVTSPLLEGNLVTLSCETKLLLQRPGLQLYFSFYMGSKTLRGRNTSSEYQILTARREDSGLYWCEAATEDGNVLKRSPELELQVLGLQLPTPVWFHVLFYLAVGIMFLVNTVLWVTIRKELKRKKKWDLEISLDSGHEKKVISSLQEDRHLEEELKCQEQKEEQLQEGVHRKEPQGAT
T3 sequence (P01833 19-603 limits assumed): as the sequence (P01833 19-603 limits assumed) above

As to CLRSGANC, the “binding to the FcγRI receptor” value with FcγRI receptor is listed as “shown to bind the FcγRI receptor”.

On to CQDPICFCGADGACYCTSRNC, for which, in experiment [1], the “binding to the poly Ig receptor” value was “shown to bind the poly Ig receptor” and the “SC binding of single phage clones (ELISA)” value (“SC binding … (ELISA)” below) is listed as “positive”.

CRSMVMLRVRC: the “binding to the FcγRI receptor” value in the experiment with FcγRI receptor was “shown to bind the FcγRI receptor”.

Consider CWTSGARWRLC, for which, in experiment [1], the “binding to the poly Ig receptor” value is on record as “shown to bind the poly Ig receptor” and the “SC binding … (ELISA)” value is “SC binding”.

Turning to “CGPGGTVGYTC [CONTROL, control phage displaying an irrelevant insert (…), reference compound]”, the “% output” value (with K562 cells; in the experiment with unstimulated U937 cells; in experiment [2]) was below 0.0004% throughout. Further, the “Output (number of bound phages)” value (in the experiment with K562 cells; in the experiment on unstimulated U937 cells; in experiment [2]) was <2 × 10^2 TU throughout.

CLRSGLHC: the “binding to the FcγRI receptor” value in the experiment with FcγRI receptor is recorded as “shown to bind the FcγRI receptor”.

On to SpsA, for which the “blocking of phage binding to SC” value at SC is “blocked phage from binding to the receptor for both peptides”.

For the substance CSWIPGVGLVC, the “binding to the FcγRI receptor” value with FcγRI receptor was “shown to bind the FcγRI receptor”.

Regarding CVVWMGFQQVC, in experiment [1], the “binding to the poly Ig receptor” value is reported as “shown to bind the poly Ig receptor” and the “SC binding … (ELISA)” value is recorded as “SC binding”.

For the substance CSAGRACCRYC, the “binding to the FcγRI receptor” value with FcγRI receptor is “shown to bind the FcγRI receptor”.

As for CLRSGAGC, the “binding to the FcγRI receptor” value in the experiment with FcγRI receptor is given as “shown to bind the FcγRI receptor”.

As to CAWHYRFCGAAHSADGACREVFLVC, in experiment [1], the “binding to the poly Ig receptor” value is “shown to bind the poly Ig receptor” and the “SC binding … (ELISA)” value is given as “positive”.

As for CLRSGLGC, the “% output” value is recorded as 0.02% in the experiment on K562 cells; 0.05% in experiment [3]; 0.3% in experiment [4] (lysate from FcFcR transfected cells); 0.028% in the experiment with unstimulated U937 cells; 0.2% in experiment [2]. In addition, the “Output (number of bound phages)” value is on record as 1.4 × 10^4 TU in the experiment on K562 cells; 1.2 × 10^5 TU in experiment [3] (input 2.5 × 10^8); 6.8 × 10^5 TU in experiment [4] (lysate from FcFcR transfected cells, input 2.5 × 10^8); 1.4 × 10^4 TU in the experiment on unstimulated U937 cells; 1 × 10^5 TU in experiment [2]. Besides, in experiment [4], the “binding to wells with immobilised FcFcR compared to wells with no FcR activity” value was “significant better binding”. In addition, the “binding to the FcγRI receptor” value with FcγRI receptor is recorded as “shown to bind the FcγRI receptor”. Also, the “times more phages eluted compared to the irrelevant control phage” value in experiment [2] (IFN-γ stimulated U937 cells) was “More than 500 times”. Besides, the “binding to IFN-γ stimulated U937 cells compared to unstimulated U937 cells and K562 cells” value in experiment [2] (same number of cells) was “bound significantly better to IFN-γ stimulated U937 cells”.

With CFPVGRATC, the “binding to the FcγRI receptor” value in the experiment with FcγRI receptor was “shown to bind the FcγRI receptor”.

Consider CGRVNTWLPQC, for which, in the experiment with FcγRI receptor, the “binding to the FcγRI receptor” value is reported as “shown to bind the FcγRI receptor”.

As to CRRSGQGC, the “binding to the FcγRI receptor” value with FcγRI receptor is given as “shown to bind the FcγRI receptor”.

Turning to CLRSGSGC, in the experiment with FcγRI receptor, the “binding to the FcγRI receptor” value was “shown to bind the FcγRI receptor”.

As to CLYGDELC, in the experiment with FcγRI receptor, the “binding to the FcγRI receptor” value is recorded as “shown to bind the FcγRI receptor”.

As for CLRSGRAC, the “binding to the FcγRI receptor” value with FcγRI receptor is on record as “shown to bind the FcγRI receptor”.

In the case of CRRATAGCAGC, in the experiment with FcγRI receptor, the “binding to the FcγRI receptor” value was “shown to bind the FcγRI receptor”.

For CLRSGRGC, the “binding to the FcγRI receptor” value in the experiment with FcγRI receptor was “shown to bind the FcγRI receptor”.
